According to paper PMC9482650, “Quantitative fragmentomics allow affinity mapping of interactomes” (Nature Communications, 2022):

T1: PCLO, Q9Y6V0
T1 sequence (Q9Y6V0 4491-4600, limits assumed, looked up): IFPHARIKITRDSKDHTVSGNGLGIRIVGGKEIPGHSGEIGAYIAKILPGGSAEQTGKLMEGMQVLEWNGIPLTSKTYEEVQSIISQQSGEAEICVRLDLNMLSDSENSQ

T2: TX1BP3, O14907
T2 sequence (O14907 10-122, limits assumed, looked up): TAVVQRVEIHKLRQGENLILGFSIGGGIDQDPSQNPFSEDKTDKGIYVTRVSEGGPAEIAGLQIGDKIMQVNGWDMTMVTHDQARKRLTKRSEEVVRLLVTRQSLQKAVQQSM

T3: RHPN1, Q8TCX5
T3 sequence (Q8TCX5 508-602, limits assumed, looked up): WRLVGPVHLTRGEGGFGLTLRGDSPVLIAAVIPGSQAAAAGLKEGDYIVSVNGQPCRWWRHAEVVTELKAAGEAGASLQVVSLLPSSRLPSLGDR

T4: SNTA1, Q13424
T4 sequence (Q13424 82-180, limits assumed, looked up): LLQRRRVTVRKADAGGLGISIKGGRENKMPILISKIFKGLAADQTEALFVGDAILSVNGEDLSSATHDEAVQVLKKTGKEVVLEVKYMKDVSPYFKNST

T5: MPP7, Q5T2T1
T5 sequence (Q5T2T1 134-230, limits assumed, looked up): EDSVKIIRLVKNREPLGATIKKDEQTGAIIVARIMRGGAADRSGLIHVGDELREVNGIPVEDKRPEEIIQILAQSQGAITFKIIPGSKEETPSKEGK

T6: GRIP1_3, Q9Y3R0
T6 sequence (Q9Y3R0 247-346, limits assumed, looked up): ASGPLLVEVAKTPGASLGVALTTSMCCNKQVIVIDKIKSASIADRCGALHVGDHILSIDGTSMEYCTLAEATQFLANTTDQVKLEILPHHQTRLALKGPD

T7: LRRC7, Q96NW7
T7 sequence (Q96NW7 1440-1537, limits assumed, looked up): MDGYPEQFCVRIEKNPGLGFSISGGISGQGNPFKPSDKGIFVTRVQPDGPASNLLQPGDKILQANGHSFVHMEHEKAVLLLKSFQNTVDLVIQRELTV

T8: SYNJ2BP, P57105
T8 sequence (P57105 8-110, limits assumed, looked up): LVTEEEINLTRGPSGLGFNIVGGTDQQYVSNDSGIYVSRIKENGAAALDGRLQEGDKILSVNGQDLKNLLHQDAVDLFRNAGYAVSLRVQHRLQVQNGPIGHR

T9: NHERF3_4, Q5T2W1
T9 sequence (Q5T2W1 373-468, limits assumed, looked up): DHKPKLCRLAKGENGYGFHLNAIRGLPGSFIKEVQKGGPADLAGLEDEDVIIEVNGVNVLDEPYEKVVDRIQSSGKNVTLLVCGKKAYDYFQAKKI

T10: NHERF3_3, Q5T2W1
T10 sequence (Q5T2W1 238-333, limits assumed, looked up): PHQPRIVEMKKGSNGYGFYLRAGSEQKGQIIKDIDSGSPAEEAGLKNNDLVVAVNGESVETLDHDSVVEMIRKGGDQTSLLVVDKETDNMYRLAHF

T11: MPDZ_5, O75970
T11 sequence (O75970 695-796, limits assumed, looked up): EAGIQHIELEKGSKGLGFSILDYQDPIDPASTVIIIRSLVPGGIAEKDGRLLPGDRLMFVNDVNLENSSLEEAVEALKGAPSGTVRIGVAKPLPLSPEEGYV

T12: GRIP1_7, Q9Y3R0
T12 sequence (Q9Y3R0 999-1096, limits assumed, looked up): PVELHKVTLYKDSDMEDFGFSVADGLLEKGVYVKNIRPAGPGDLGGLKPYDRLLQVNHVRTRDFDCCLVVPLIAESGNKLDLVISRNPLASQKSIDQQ


Assays:
Assay in all cases: holdup assay
Design in all cases: key: below the threshold = too weak to quantify, mostly under pKd 3.1 to 4
Settings in all cases: plain residues with an end cap or a label only (N-terminal biotin on a linker: ado-ado)
DLG5_1, Q8TDM6 = target: DLG5_1, Q8TDM6
Sequence of DLG5_1, Q8TDM6 (Q8TDM6 617-713): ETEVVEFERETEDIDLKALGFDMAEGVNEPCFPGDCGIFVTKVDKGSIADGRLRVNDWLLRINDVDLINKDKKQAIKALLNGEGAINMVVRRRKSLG

PCLO, Q9Y6V0 = target: T1, PCLO, Q9Y6V0
HTRA1, Q92743 = target: HTRA1, Q92743
Sequence of HTRA1, Q92743 (Q92743 360-477): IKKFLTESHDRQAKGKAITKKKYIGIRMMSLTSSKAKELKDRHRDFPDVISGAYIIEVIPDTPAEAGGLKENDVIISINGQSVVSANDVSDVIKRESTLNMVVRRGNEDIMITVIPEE

MAGI2_4, Q86UL8 = target: MAGI2_4, Q86UL8
Sequence of MAGI2_4, Q86UL8 (Q86UL8 772-865): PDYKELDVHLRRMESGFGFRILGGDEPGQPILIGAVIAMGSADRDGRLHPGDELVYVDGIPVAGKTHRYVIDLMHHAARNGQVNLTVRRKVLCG

TX1BP3, O14907 = target: T2, TX1BP3, O14907
RHPN1, Q8TCX5 = target: T3, RHPN1, Q8TCX5
LIMK2, P53671 = target: LIMK2, P53671
Sequence of LIMK2, P53671 (P53671 143-248): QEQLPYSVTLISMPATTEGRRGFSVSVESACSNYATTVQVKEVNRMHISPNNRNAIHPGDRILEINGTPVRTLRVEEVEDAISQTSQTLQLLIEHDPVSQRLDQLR

DLG1_2, Q12959 = target: DLG1_2, Q12959
Sequence of DLG1_2, Q12959 (Q12959 314-412): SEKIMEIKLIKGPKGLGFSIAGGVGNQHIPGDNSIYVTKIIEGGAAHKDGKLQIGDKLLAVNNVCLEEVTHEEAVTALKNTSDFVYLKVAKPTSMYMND

DLG2_2, Q15700 = target: DLG2_2, Q15700
SNTA1, Q13424 = target: T4, SNTA1, Q13424
MPP7, Q5T2T1 = target: T5, MPP7, Q5T2T1
GRIP1_3, Q9Y3R0 = target: T6, GRIP1_3, Q9Y3R0
LRRC7, Q96NW7 = target: T7, LRRC7, Q96NW7
MAGI2_3, Q86UL8 = target: MAGI2_3, Q86UL8
Sequence of MAGI2_3, Q86UL8 (Q86UL8 600-682): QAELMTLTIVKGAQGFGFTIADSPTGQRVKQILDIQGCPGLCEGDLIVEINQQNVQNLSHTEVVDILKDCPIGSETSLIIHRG

MAST1, Q9Y2H9 = target: MAST1, Q9Y2H9
Sequence of MAST1, Q9Y2H9 (Q9Y2H9 962-1065): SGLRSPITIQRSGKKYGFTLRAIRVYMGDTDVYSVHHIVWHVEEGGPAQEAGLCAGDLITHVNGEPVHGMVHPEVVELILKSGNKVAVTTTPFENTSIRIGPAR

PDZRN4_1, Q6ZMN7 = target: PDZRN4_1, Q6ZMN7
Sequence of PDZRN4_1, Q6ZMN7 (Q6ZMN7 213-318): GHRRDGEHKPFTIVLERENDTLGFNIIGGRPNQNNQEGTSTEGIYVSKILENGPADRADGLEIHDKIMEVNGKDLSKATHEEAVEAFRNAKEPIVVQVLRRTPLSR

GRID2IP_2, A4D2P6 = target: GRID2IP_2, A4D2P6
Sequence of GRID2IP_2, A4D2P6 (A4D2P6 272-370): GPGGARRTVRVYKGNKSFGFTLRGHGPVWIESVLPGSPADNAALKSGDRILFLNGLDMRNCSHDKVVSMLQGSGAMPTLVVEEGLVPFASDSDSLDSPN

SYNJ2BP, P57105 = target: T8, SYNJ2BP, P57105
NHERF3_4, Q5T2W1 = target: T9, NHERF3_4, Q5T2W1
Inadl_5, Q8NI35 = target: Inadl_5, Q8NI35
Sequence of Inadl_5, Q8NI35 (Q8NI35 673-780): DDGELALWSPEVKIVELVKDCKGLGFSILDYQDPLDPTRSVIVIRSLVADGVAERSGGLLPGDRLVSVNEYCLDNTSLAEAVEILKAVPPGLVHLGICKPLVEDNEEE

DLG2_3, Q15700 = target: DLG2_3, Q15700
NHERF3_3, Q5T2W1 = target: T10, NHERF3_3, Q5T2W1
MPDZ_5, O75970 = target: T11, MPDZ_5, O75970
GRIP1_7, Q9Y3R0 = target: T12, GRIP1_7, Q9Y3R0
GRIP2_7, Q9C0E4 = target: GRIP2_7, Q9C0E4
Sequence of GRIP2_7, Q9C0E4 (Q9C0E4 934-1023): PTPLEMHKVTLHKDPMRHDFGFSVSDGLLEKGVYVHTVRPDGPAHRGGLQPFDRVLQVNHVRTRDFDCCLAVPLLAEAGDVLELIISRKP

Row | Binder | pKd (DLG5_1, Q8TDM6) | pKd (PCLO, Q9Y6V0) | pKd (HTRA1, Q92743) | pKd (MAGI2_4, Q86UL8) | pKd (TX1BP3, O14907) | pKd (RHPN1, Q8TCX5) | pKd (LIMK2, P53671) | pKd (DLG1_2, Q12959) | pKd (DLG2_2, Q15700) | pKd (SNTA1, Q13424) | pKd (MPP7, Q5T2T1) | pKd (GRIP1_3, Q9Y3R0) | pKd (LRRC7, Q96NW7) | pKd (MAGI2_3, Q86UL8) | pKd (MAST1, Q9Y2H9) | pKd (PDZRN4_1, Q6ZMN7) | pKd (GRID2IP_2, A4D2P6) | pKd (SYNJ2BP, P57105) | pKd (NHERF3_4, Q5T2W1) | pKd (Inadl_5, Q8NI35) | further results
1 | DDPSTAETVL [ABCA7, Q8IZY2] | below the threshold | below the threshold | 4.64 | below the threshold | below the threshold | 4.92 | below the threshold | 3.78 | below the threshold | 4.71 | below the threshold | below the threshold | below the threshold | 3.71 | 4.88 | 4.66 | below the threshold | 4.16 | below the threshold | below the threshold | pKd (DLG2_3, Q15700): 3.88; pKd (NHERF3_3, Q5T2W1): below the threshold; pKd (MPDZ_5, O75970): below the threshold; pKd (GRIP1_7, Q9Y3R0): below the threshold; pKd (GRIP2_7, Q9C0E4): below the threshold
2 | HLRARKSEWV [GJD4, Q96KN9] | below the threshold | below the threshold | 4.38 | 3.71 | below the threshold | below the threshold | below the threshold | 4.18 | 3.62 | below the threshold | below the threshold | below the threshold | 3.81 | below the threshold | below the threshold | below the threshold | 3.89 | 4.2 | below the threshold | 5.11 | pKd (DLG2_3, Q15700): 4.16; pKd (NHERF3_3, Q5T2W1): below the threshold; pKd (MPDZ_5, O75970): 4.06; pKd (GRIP1_7, Q9Y3R0): below the threshold; pKd (GRIP2_7, Q9C0E4): 4.04
3 | PEYLGLDVPV [ERBB2, P04626] | below the threshold | below the threshold | 3.59 | below the threshold | 4.19 | below the threshold | below the threshold | below the threshold | below the threshold | 3.61 | below the threshold | below the threshold | below the threshold | 3.5 | 3.98 | 3.52 | below the threshold | below the threshold | 3.59 | below the threshold | pKd (DLG2_3, Q15700): below the threshold; pKd (NHERF3_3, Q5T2W1): below the threshold; pKd (MPDZ_5, O75970): below the threshold; pKd (GRIP1_7, Q9Y3R0): 3.52; pKd (GRIP2_7, Q9C0E4): below the threshold
4 | AKPSRISTVV [IQSEC2, Q5JU85] | below the threshold | below the threshold | 4.5 | 4.68 | 3.76 | below the threshold | below the threshold | 5.52 | 5.21 | 4.12 | below the threshold | below the threshold | below the threshold | 3.55 | 4.28 | below the threshold | 3.77 | 4.51 | 3.73 | 4.21 | pKd (DLG2_3, Q15700): 4.34; pKd (NHERF3_3, Q5T2W1): below the threshold; pKd (MPDZ_5, O75970): below the threshold; pKd (GRIP1_7, Q9Y3R0): below the threshold; pKd (GRIP2_7, Q9C0E4): below the threshold
5 | TSQESEDTYL [TBC1D10A, Q9BXI6] | below the threshold | below the threshold | 4.7 | below the threshold | below the threshold | 4.45 | below the threshold | below the threshold | below the threshold | 3.91 | below the threshold | below the threshold | 3.85 | below the threshold | 4.71 | 3.8 | below the threshold | 3.93 | 3.48 | below the threshold | pKd (DLG2_3, Q15700): below the threshold; pKd (NHERF3_3, Q5T2W1): 3.59; pKd (MPDZ_5, O75970): below the threshold; pKd (GRIP1_7, Q9Y3R0): below the threshold; pKd (GRIP2_7, Q9C0E4): below the threshold
6 | DDENIRTSDV [PLEKHA2, Q9HB19] | below the threshold | below the threshold | below the threshold | below the threshold | 4.75 | 3.92 | below the threshold | 4.46 | 4.04 | 5.11 | below the threshold | below the threshold | 3.72 | below the threshold | 4.31 | below the threshold | 4.19 | 4.38 | below the threshold | below the threshold | pKd (DLG2_3, Q15700): below the threshold; pKd (NHERF3_3, Q5T2W1): below the threshold; pKd (MPDZ_5, O75970): below the threshold; pKd (GRIP1_7, Q9Y3R0): below the threshold; pKd (GRIP2_7, Q9C0E4): below the threshold
